Results taken from patent publication US20210070882A1.

Target: human CD19 (human) (UniProt P15391)
Assay: cell-based or functional assay

Sequence of human CD19 (human) (P15391 20-556): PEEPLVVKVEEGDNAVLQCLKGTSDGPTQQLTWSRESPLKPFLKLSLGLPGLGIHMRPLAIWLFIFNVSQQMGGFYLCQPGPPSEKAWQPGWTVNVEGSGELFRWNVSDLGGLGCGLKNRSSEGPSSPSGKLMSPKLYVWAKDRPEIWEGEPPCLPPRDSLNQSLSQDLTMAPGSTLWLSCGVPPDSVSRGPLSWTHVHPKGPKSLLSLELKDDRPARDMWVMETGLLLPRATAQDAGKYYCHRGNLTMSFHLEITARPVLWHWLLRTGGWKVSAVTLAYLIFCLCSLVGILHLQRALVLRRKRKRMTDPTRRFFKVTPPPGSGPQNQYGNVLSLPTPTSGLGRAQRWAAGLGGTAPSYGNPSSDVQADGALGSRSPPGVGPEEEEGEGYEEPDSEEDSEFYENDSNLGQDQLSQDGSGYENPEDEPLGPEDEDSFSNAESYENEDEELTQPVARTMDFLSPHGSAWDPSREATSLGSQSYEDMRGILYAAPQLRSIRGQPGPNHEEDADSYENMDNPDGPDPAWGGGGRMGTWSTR

- T cell activation EC50 upon Z-138 lysis, CD25/CD4: 3.7 pM
- T cell activation EC50 upon Z-138 lysis, CD25/CD8: 4.5 pM
- T cell activation EC50 upon Z-138 lysis, CD69/CD4: 2.3 pM
- T cell activation EC50 upon Z-138 lysis, CD69/CD8: 2.4 pM
- Tumor cell lysis Z-138 cells (21 h), EC50: 0.26 ng/mL
- Tumor cell lysis Z-138 cells (21 h), EC50 (pM): 4.8 pM
Substance: Blinatumomab (bispecific antibody)
